{"source": "paper PMC9593060", "biological_target": "T1, YycF (Staphylococcus aureus (ATCC29213?)) (UniProt Q9RDT5)", "T1 sequence": "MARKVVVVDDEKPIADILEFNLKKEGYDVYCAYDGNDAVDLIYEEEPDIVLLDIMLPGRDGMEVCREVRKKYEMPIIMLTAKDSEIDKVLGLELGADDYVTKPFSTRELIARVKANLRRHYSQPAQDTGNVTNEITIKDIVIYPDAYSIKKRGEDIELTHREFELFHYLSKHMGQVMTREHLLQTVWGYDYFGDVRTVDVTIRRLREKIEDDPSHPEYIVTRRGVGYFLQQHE", "assay": "EMSA", "conditions": "binding buffer not stated", "data": [{"sequence": "TGTGAAATATCAATTTGATTGAAAATTAGACAAAAATAAAGAAATGACTTCAACATAATCATCAAAGTCATTTCGTTGAGTTGACTACTGCCAAGATAACATCGTCACGACTAGGACATTGAATTATGTCCCAGACTCATCGACT (double strand) [PcodY (codY promoter region)]", "values": [{"measurement": "binding", "value": "binds"}]}]}
